The values that follow come from patent US20240391984A1.

For assay [1], the target named is polyclonal IgG (Gammanorm, Octapharma, Sweden). The assay is described as follows: SPR (Biacore 8K+), variant amine-coupled to CM5, Gammanorm as analyte, 1:1 kinetic fit. (In general: SPR reads the build-up and loss of mass on a sensor chip optically.)
Assay [2] has the same target. Nature of the assay: SPR (Biacore 8K+), variant amine-coupled to CM5, Gammanorm as analyte, steady state fit.
Assay [3] shares this target. The assay is described as follows: SPR (Biacore 8K+), variant amine-coupled to CM5, Gammanorm as analyte, 1:1 kinetic fit. This is another data set of the same source.
Assay [4] shares this target. Nature of the assay: SPR (Biacore 8K+), variant amine-coupled to CM5, Gammanorm as analyte, steady state fit. This is another data set of the same source.

Where a chain is given by its changes, count along the chain named. Numbers in names are those of the source.

B1: pAM240 (Protein L B5b domain; H, H, Q at positions 10, 45, 60) (designed binder)
chain: KEQVTIKEHIYFEDGTVQTATFKGTFAEATAEAYRYADLLSKEHGKYTADLEDGGYTIQIRFAGKEEPEE
One may read the Kd as the equilibrium constant for the complex coming apart. Turning to B1, the figures for the dissociation constant Kd in assay [1] and in assay [2] were 15 nM and 79 nM, respectively.

B2: pAM254 (Protein L B5b domain; H, H, Y at positions 10, 45, 60) (designed binder)
chain: B1 chain with Q59Y
As to B2, the dissociation constant (Kd) in assay [1] came out at 7 nM; in assay [2] it was 41 nM.

B3: pAM261 (Protein L C4 domain; N10H, N45H, N60Y) (designed binder)
chain: PKEEVTIKVHLIFADGKTQTAEFKGTFEEATAEAYRYADLLAKVHGEYTADLEDGGYTIYIKFAGKEQPGENPG
Take B3: the Kd stood at 12 nM in assay [1] and 43 nM in assay [2].

B4: pAM258 (Protein L C2b domain; N10H, N45H, N60Y) (designed binder)
chain: B3 chain with E33K, R36A, V44E, Q68T, G70E, E71T, N72P, P73E, G74E
On to B4, for which the Kd in assay [1] stood at 17 nM; in assay [2] it was 45 nM.

B5: pAM247 (Protein L C4 domain; N10H, N45H, N60Q) (designed binder)
chain: B3 chain with Y60Q
On to B5, for which the dissociation constant Kd was 9 nM in assay [1] and 38 nM in assay [2].

B6: pAM253 (Protein L B4 domain; N10H, N45H, N60Y) (designed binder)
chain: PKEEVTIKAHLIYADGKTQTAEFKGTFAEATAEAYRYADLLAKEHGKYTADLEDGGYTIYIRFAGKKVDEKPEE
B6: the Kd in assay [1] is 14 nM; in assay [2], 54 nM.

B7: pAM239 (Protein L B4 domain; N10H, N45H, N60Q) (designed binder)
chain: B6 chain with Y60Q
For the molecule B7, the dissociation constant (Kd) was 17 nM in assay [1] and 60 nM in assay [2].

B8: pAM251 (Protein L B2 domain; N10H, N45H, N60Y) (designed binder)
chain: PKEEVTIKAHLIYADGKTQTAEFKGTFEEAAAEAYRYADALKKDHGEYTVDVADKGYTLYIKFAGKEKTPEE
On to B8, for which the figures for the dissociation constant Kd in assay [1] and in assay [2] were 20 nM and 55 nM, respectively.

B9: pAM137 (B3 domain of Protein L; pos 10 Y, pos 45 A, pos 60 Q) (designed binder)
chain: B8 chain with H10Y, A31T, A40L, K42A, D44E, H45A, E47K, Y60Q
On to B9, for which the Kd turned out to be 18 nM in assay [3] and 64 nM in assay [4].

B10: pAM117 (B3 domain of Protein L; pos 10 N, pos 45 N, pos 60 Q) (designed binder)
chain: B8 chain with H10N, A31T, A40L, K42A, D44E, H45N, E47K, Y60Q
For B10, the dissociation constant (Kd) amounted to 18 nM in assay [3] and 60 nM in assay [4].

B11: pAM238 (Protein L B3 domain; N10H, N45H, N60Q) (designed binder)
chain: B8 chain with A31T, A40L, K42A, D44E, E47K, Y60Q
Turning to B11, the Kd in assay [1] came to 25 nM; in assay [2], 82 nM.

B12: pAM118 (B3 domain of Protein L; pos 10 N, pos 45 N, pos 60 Y) (designed binder)
chain: B8 chain with H10N, A31T, A40L, K42A, D44E, H45N, E47K
For B12, the figures for the dissociation constant (Kd) in assay [3] and in assay [4] were 20 nM and 68 nM, respectively.

B13: pAM135 (B3 domain of Protein L; pos 10 Y, pos 45 N, pos 60 Q) (designed binder)
chain: B8 chain with H10Y, A31T, A40L, K42A, D44E, H45N, E47K, Y60Q
As to B13, the Kd in assay [3] is 17 nM; in assay [4], 61 nM.

B14: pAM120 (B3 domain of Protein L; pos 10 N, pos 45 A, pos 60 Y) (designed binder)
chain: B8 chain with H10N, A31T, A40L, K42A, D44E, H45A, E47K
Regarding B14, the Kd amounted to 19 nM in assay [3] and 69 nM in assay [4].

B15: pAM132 (B3 domain of Protein L; pos 10 Y, pos 45 N, pos 60 N) (designed binder)
chain: B8 chain with H10Y, A31T, A40L, K42A, D44E, H45N, E47K, Y60N
With B15, the equilibrium dissociation constant (Kd) in assay [3] is 15 nM; in assay [4], 50 nM.

B16: pAM133 (B3 domain of Protein L; pos 10 Y, pos 45 A, pos 60 N) (designed binder)
chain: B8 chain with H10Y, A31T, A40L, K42A, D44E, H45A, E47K, Y60N
For B16, the Kd in assay [3] is 13 nM; in assay [4], 46 nM.

B17: pAM140 (B3 domain of Protein L; pos 10 Y, pos 45 H, pos 60 Y) (designed binder)
chain: B8 chain with H10Y, A31T, A40L, K42A, D44E, E47K
As to B17, the Kd in assay [3] came to 27 nM; in assay [4], 96 nM.

B18: pAM129 (B3 domain of Protein L; pos 10 Q, pos 45 A, pos 60 Y) (designed binder)
chain: B8 chain with H10Q, A31T, A40L, K42A, D44E, H45A, E47K
On to B18, for which the values for the Kd in assay [3] and in assay [4] were 14 nM and 63 nM, respectively.

B19: pAM252 (Protein L B3 domain; N10H, N45H, N60Y) (designed binder)
chain: B8 chain with A31T, A40L, K42A, D44E, E47K
Consider B19, for which the equilibrium dissociation constant (Kd) in assay [1] amounted to 16 nM; in assay [2] it was 69 nM.

B20: pAM136 (B3 domain of Protein L; pos 10 Y, pos 45 N, pos 60 Y) (designed binder)
chain: B8 chain with H10Y, A31T, A40L, K42A, D44E, H45N, E47K
As for B20, the Kd in assay [3] amounted to 19 nM; in assay [4] it was 77 nM.

B21: pAM128 (previously disclosed benchmarking Protein L ligand; B3 domain with pos 10 Q, pos 45 A, pos 60 Q) (designed binder)
chain: B8 chain with H10Q, A31T, A40L, K42A, D44E, H45A, E47K, Y60Q
Consider B21, for which the dissociation constant (Kd) in assay [3] is 17 nM; in assay [4] it was 60 nM.

B22: pAM122 (B3 domain of Protein L; pos 10 N, pos 45 H, pos 60 Y) (designed binder)
chain: B8 chain with H10N, A31T, A40L, K42A, D44E, E47K
For the molecule B22, the equilibrium dissociation constant (Kd) in assay [3] was 25 nM; in assay [4] it was 89 nM.

B23: pAM138 (B3 domain of Protein L; pos 10 Y, pos 45 A, pos 60 Y) (designed binder)
chain: B8 chain with H10Y, A31T, A40L, K42A, D44E, H45A, E47K
For B23, the dissociation constant (Kd) in assay [3] worked out at 18 nM; in assay [4] it was 73 nM.

B24: pAM119 (B3 domain of Protein L; pos 10 N, pos 45 A, pos 60 Q) (designed binder)
chain: B8 chain with H10N, A31T, A40L, K42A, D44E, H45A, E47K, Y60Q
In the case of B24, the results for the dissociation constant (Kd) in assay [3] and in assay [4] were 16 nM and 58 nM, respectively.

B25: pAM127 (B3 domain of Protein L; pos 10 Q, pos 45 N, pos 60 Y) (designed binder)
chain: B8 chain with H10Q, A31T, A40L, K42A, D44E, H45N, E47K
On to B25, for which the results for the Kd in assay [3] and in assay [4] were 15 nM and 62 nM, respectively.

B26: pAM237 (Protein L B2 domain; N10H, N45H, N60Q) (designed binder)
chain: B8 chain with Y60Q
For B26, the dissociation constant (Kd) in assay [1] stood at 27 nM; in assay [2], 72 nM.

B27: pAM125 (B3 domain of Protein L; pos 10 Q, pos 45 H, pos 60 N) (designed binder)
chain: B8 chain with H10Q, A31T, A40L, K42A, D44E, E47K, Y60N
Turning to B27, the Kd in assay [3] came to 15 nM; in assay [4] it was 50 nM.

B28: pAM139 (B3 domain of Protein L; pos 10 Y, pos 45 H, pos 60 Q) (designed binder)
chain: B8 chain with H10Y, A31T, A40L, K42A, D44E, E47K, Y60Q
With B28, the results for the dissociation constant (Kd) in assay [3] and in assay [4] were 22 nM and 71 nM, respectively.

B29: pAM131 (B3 domain of Protein L; pos 10 Q, pos 45 H, pos 60 Y) (designed binder)
chain: B8 chain with H10Q, A31T, A40L, K42A, D44E, E47K
B29: the results for the Kd in assay [3] and in assay [4] were 21 nM and 81 nM, respectively.

B30: pAM121 (B3 domain of Protein L; pos 10 N, pos 45 H, pos 60 Q) (designed binder)
chain: B8 chain with H10N, A31T, A40L, K42A, D44E, E47K, Y60Q
On to B30, for which the figures for the equilibrium dissociation constant (Kd) in assay [3] and in assay [4] were 22 nM and 76 nM, respectively.

B31: pAM241 (Protein L C1 domain; H, H, Q at positions 10, 45, 60) (designed binder)
chain: PEEEVTIKAHLIFADGSTQNAEFKGTFAKAVSDAYAYADALKKDHGEYTVDVADKGLTLQIKFAGKKEKPEE
Turning to B31, the results for the equilibrium dissociation constant (Kd) in assay [1] and in assay [2] were 87 nM and 187 nM, respectively.

B32: pAM255 (Protein L C1 domain; H, H, Y at positions 10, 45, 60) (designed binder)
chain: B31 chain with Q60Y
Consider B32, for which the dissociation constant Kd was 146 nM in assay [1] and 324 nM in assay [2].

B33: pAM244 (Protein L C2b domain; N10H, N45H, N60Q) (designed binder)
chain: PKEEVTIKVHLIFADGKTQTAEFKGTFEEATAKAYAYADLLAKEHGEYTADLEDGGYTIQIKFAGKETPETPEE
Take B33: the values for the dissociation constant Kd in assay [1] and in assay [2] were 18 nM and 50 nM, respectively.

B34: pAM257 (Protein L C2 domain; H, H, Y at positions 10, 45, 60) (designed binder)
chain: B33 chain with Y57N, Q60Y
As to B34, the values for the dissociation constant Kd in assay [1] and in assay [2] were 47 nM and 98 nM, respectively.

B35: pAM259 (Protein L C3 domain; H, H, Y at positions 10, 45, 60) (designed binder)
chain: B33 chain with T18I, D39N, Y57N, Q60Y
Regarding B35, the dissociation constant (Kd) in assay [1] was found to be 55 nM; in assay [2], 120 nM.

B36: pAM260 (Protein L C3b domain; N10H, N45H, N60Y) (designed binder)
chain: B33 chain with T18I, Q60Y
Turning to B36, the Kd turned out to be 18 nM in assay [1] and 51 nM in assay [2].

B37: pAM243 (Protein L C2 domain; H, H, Q at positions 10, 45, 60) (designed binder)
chain: B33 chain with Y57N
Turning to B37, the figures for the Kd in assay [1] and in assay [2] were 39 nM and 83 nM, respectively.

B38: pAM249 (Protein L B1 domain; N10H, N45H, N60Y) (designed binder)
chain: SEEEVTIKAHLIFANGSTQTAEFKGTFEKATSEAYAYADTLKKDHGEYTVDVADKGYTLYIKFAGKEKTPEE
With B38, the dissociation constant (Kd) in assay [1] amounted to 29 nM; in assay [2], 79 nM.

B39: pAM235 (Protein L B1 domain; N10H, N45H, N60Q) (designed binder)
chain: B38 chain with Y60Q
As for B39, the results for the equilibrium dissociation constant (Kd) in assay [1] and in assay [2] were 42 nM and 101 nM, respectively.

B40: pAM262 (D1 domain; N10H, N45H, N60Y) (designed binder)
chain: PKEEVTIKAHLIFADGKTQTAEFKGTFEEATAEAYRYADLLAKVHGEYTADLEDGGYTIYIKFAGKEQPGEN
On to B40, for which the Kd in assay [1] is 11 nM; in assay [2], 48 nM.

B41: pAM248 (D1 domain; N10H, N45H, N60Q) (designed binder)
chain: B40 chain with Y60Q
With B41, the dissociation constant (Kd) is 16 nM in assay [1] and 56 nM in assay [2].
